The target in one data set is T1, Mss116p D2 (with CTE) (Saccharomyces cerevisiae? (paper: yeast), UniProt P15424 342-597).
T1 sequence: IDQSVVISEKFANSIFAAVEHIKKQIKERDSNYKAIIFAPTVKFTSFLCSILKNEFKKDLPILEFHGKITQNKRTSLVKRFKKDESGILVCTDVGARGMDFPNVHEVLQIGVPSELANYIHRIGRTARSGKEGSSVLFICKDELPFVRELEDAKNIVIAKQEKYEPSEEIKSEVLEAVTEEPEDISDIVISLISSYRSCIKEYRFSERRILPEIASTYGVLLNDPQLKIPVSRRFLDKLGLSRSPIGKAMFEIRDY
The experiment in a line: X-ray crystallography.

In another data set the target is T2, Mss116p MBP-D1 (Saccharomyces cerevisiae? (paper: yeast), UniProt P15424 88-330).
T2 sequence: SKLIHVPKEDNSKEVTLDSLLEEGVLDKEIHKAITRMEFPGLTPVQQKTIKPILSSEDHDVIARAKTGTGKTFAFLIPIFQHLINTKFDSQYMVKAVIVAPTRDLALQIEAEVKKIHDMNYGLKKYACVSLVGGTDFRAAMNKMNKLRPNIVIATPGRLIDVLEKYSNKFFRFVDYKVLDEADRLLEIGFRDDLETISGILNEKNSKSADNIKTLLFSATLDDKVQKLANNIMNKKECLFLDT
The experiment in a line: EMSA. (A gel shift assay detects complexes by their altered migration in electrophoresis.)

B1: chimeric RNA-DNA duplex 14-bp (mixed)
? 1: GGGCGGGCCCGCCC
? 2: GGGCGGGCCCGCCC
modifications: each strand rGrGrGrCrGrGrGdCdCdCdGdCdCdC: nt 1-7 RNA, nt 8-14 DNA
For B1, in the data set with Mss116p D2 (with CTE), the binding result is given as “binds”.

B2: FAM-dsRNA 14-bp (dsRNA)
RNA 1: GGGCGGGCCCGCCC
RNA 2: GGGCGGGCCCGCCC
Take B2: the binding result in the data set with Mss116p MBP-D1 is on record as “no binding”.

(Values after PMC3465527.)
